{
  "source": "paper PMC6152936",
  "about": "(Cell reports, 2018)",
  "proteins": {"B1": {"name": "TFG N terminus (amino acids 1-138), wild type (domain or fragment, human, UniProt Q92734 1-138, looked up)", "chain": "MNGQLDLSGKLIIKAQLGEDIRRIPIHNEDITYDELVLMMQRVFRGKLLSNDEVTIKYKDEDGDLITIFDSSDLSFAIQCSRILKLTLFVNGQPRPLESSQVKYLRRELIELRNKVNRLLDSLEPPGEPGPSTNIPEN"}},
  "biological_target": "the molecule itself",
  "assay": "SAXS",
  "data": [
    {"protein": "B1", "values": [
      {"measurement": "stoichiometry N", "result": 8}
    ]}
  ]
}
